For this assay, the target named is T1, Aurora A kinase (endogenous, MDA-MB-231 cells) (human, UniProt O14965 1-403).
T1 sequence (looked up): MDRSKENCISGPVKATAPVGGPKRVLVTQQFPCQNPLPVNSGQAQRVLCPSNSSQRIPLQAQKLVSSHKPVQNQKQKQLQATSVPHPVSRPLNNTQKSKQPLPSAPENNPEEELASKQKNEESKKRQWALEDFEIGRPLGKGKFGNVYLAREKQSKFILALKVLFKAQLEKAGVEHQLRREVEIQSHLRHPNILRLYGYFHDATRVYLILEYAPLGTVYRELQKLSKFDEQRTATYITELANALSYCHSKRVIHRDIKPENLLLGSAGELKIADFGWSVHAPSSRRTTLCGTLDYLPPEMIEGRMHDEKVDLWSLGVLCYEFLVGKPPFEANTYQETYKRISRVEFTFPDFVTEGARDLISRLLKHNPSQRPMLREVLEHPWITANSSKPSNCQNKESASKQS
Put plainly: HA-tagged truncated LIMK2 mutants expressed in MDA cells, isolated and analyzed for Aurora A binding. As for the experimental part: LIMK2 contains two LIM domains (12-129), a PDZ domain (152-236), an S/P domain (240-328) and a kinase domain (331-601) (Scott and Olson (2007) J. Mol. Med. 85, 555-568). […] These mutants were transiently expressed in MDA cells, isolated and analyzed for Aurora A binding.
We next investigated whether association of LIM domains of LIMK2 is sufficient for Aurora A stabilization. […] After 30 h, cells were lysed, HA-tagged LIMK2 proteins were isolated and probed for Aurora A binding. […] After 30 h, cells were lysed, HA-tagged LIMK2 proteins were isolated and probed for Aurora A binding.

B1: HA-tagged (1-145) LIMK2 (other, not shown: small tags and cut ends)
chain: MSALAGEDVWRCPGCGDHIAPSQIWYRTVNETWHGSCFRCSECQDSLTNWYYEKDGKLYCPKDYWGKFGEFCHGCSLLMTGPFMVAGEFKYHPECFACMSCKVIIEDGDAYALVQHATLYCGKCHNEVVLAPMFERLSTESVQEQ
notes: also called truncated LIMK2 mutant containing two LIM domains
Take B1: the binding result was “binds”.

For the origin of these results see patent US20130253037A1 (PURDUE RESEARCH FOUNDATION, published 2013).
